The values that follow come from patent US20190330344A1 (F STAR THERAPEUTICS, published 2019).

The test deals with T1, cynomolgus LAG-3 expressed on DO11.10 cells (cynomolgus monkey, UniProt P18627 24-525 (human entry)).
T1 chain: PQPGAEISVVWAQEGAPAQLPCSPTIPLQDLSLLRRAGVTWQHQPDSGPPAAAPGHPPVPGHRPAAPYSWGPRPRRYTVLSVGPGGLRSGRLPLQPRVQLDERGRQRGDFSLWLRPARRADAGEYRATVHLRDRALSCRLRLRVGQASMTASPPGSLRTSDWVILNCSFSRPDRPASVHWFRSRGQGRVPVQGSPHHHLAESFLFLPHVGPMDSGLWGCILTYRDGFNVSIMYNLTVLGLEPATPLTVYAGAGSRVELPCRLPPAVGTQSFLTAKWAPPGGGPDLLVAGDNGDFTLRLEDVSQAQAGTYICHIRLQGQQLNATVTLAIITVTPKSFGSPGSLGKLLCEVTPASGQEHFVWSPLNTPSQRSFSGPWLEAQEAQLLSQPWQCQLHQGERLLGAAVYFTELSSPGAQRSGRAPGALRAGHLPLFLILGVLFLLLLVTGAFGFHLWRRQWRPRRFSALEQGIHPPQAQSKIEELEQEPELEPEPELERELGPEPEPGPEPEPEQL
Briefly: cell-based or functional assay.

B1: FS18-7-9/4420LALA (anti-human LAG-3 Fcab FS18-7-9 in mock mAb^2 format comprising the LALA mutation) (bispecific antibody, human IgG1, kappa, L234A L235A)
heavy: EVKLDETGGGLVQPGRPMKLSCVASGFTFSDYWMNWVRQSPEKGLEWVAQIRNKPYNYETYYSDSVKGRFTISRDDSKSSVYLQMNNLRVEDMGIYYCTGSYYGMDYWGQGTSVTVSSASTKGPSVFPLAPSSKSTSGGTAALGCLVKDYFPEPVTVSWNSGALTSGVHTFPAVLQSSGLYSLSSVVTVPSSSLGTQTYICNVNHKPSNTKVDKKVEPKSCDKTHTCPPCPAPEAAGGPSVFLFPPKPKDTLMISRTPEVTCVVVDVSHEDPEVKFNWYVDGVEVHNAKTKPREEQYNSTYRVVSVLTVLHQDWLNGKEYKCKVSNKALPAPIEKTISKAKGQPREPQVYTLPPSWDEPWGEDVSLTCLVKGFYPSDIAVEWESNGQPENNYKTTPPVLDSDGSFFLYSKLTVPYDRWVWPDEFSCSVMHEALHNHYTQKSLSLSPG
light: DVVMTQTPLSLPVSLGDQASISCRSSQSLVHSNGNTYLRWYLQKPGQSPKVLIYKVSNRFSGVPDRFSGSGSGTDFTLKISRVEAEDLGVYFCSQSTHVPWTFGGGTKLEIKRTVAAPSVFIFPPSDEQLKSGTASVVCLLNNFYPREAKVQWKVDNALQSGNSQESVTEQDSKDSTYSLSSTLTLSKADYEKHKVYACEVTHQGLSSPVTKSFNRGEC
Consider B1, for which the “EC50 of mIL-2 release, cynomolgus LAG-3 DO11.10 T cell activation assay” value was 5.6 nM.
